In patent US20230340439, “SYNTHETIC MINIATURE CRISPR-CAS (CASMINI) SYSTEM FOR EUKARYOTIC GENOME ENGINEERING” (The Board of Trustees of the Leland Stanford Junior …, published 2023):
Numbering of substitutions follows the chain as printed.

Legend:
[1] = target: T1, dCas14-VPR (dUn1Cas12f1-VPR) (UniProt A0A482D308 SEQ:1-529); assay: cell_activity; GFP activation, 3% GFP+ cells; PAM TTTR; settings: chain copies: 2
T1 chain: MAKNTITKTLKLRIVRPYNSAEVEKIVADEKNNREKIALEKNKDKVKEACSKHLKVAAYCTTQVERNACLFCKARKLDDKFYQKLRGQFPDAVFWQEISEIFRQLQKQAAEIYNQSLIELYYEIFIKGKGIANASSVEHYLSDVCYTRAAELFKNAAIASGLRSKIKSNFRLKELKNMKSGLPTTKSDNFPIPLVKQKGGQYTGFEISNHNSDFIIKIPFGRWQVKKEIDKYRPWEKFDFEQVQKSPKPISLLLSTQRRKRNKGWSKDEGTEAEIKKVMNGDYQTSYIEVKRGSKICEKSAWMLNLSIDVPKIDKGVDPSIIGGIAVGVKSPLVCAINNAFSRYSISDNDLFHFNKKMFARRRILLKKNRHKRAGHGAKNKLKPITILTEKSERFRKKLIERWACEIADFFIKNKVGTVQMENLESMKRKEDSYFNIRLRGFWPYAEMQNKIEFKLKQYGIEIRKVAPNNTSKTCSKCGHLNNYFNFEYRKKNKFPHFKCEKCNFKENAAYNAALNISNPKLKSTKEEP
Method: (§1) Using a doxycycline (Dox)-inducible TRE3G-EGFP HEK293T reporter cell line and a sgRNA targeting the promoter, activation efficiency of dCas14-VPR was measured. Wild-type HEK293T cells (ATCC) and the HEK293T TRE3G-GFP reporter line stably encoding EGFP under a Tet-On promoter (pTRE3G) (Y. Gao et al., Genome Res. 22, (2012): 1760-74) were cultured in DMEM with high glucose, sodium pyruvate and GlutaMAX (Thermo Fisher), additionally supplemented with 10% FBS (Sigma). Cells were grown at 37° C. and 5% CO₂ and maintained at confluency below 80%. All transfections were performed with TransIT-LT1 transfection reagent (Mirus) at a ratio of 3 µL reagent per µg of plasmid. Cells were plated 1 day before at 1×10⁵ cells/mL. For this and other GFP activation assays described in these Examples, 500 ng of dCas constructs and 250 ng sgRNA or crRNA plasmids were transfected to HEK293T TRE3G-GFP cells in 24-well plates. Transfected cells were analyzed 2 days post-transfection for GFP activation. Here, no reporter activation was observed (FIG. 3), implying the natural Cas14 system fails to function in the human genome context.

[2] = target: T2, dCasMINI-V3-VPR (D143R/T147R/K330R) (UniProt A0A482D308 SEQ:1-529); assay: cell_activity; GFP activation; PAM TTTR
T2 chain: T1 chain with D143R, T147R, K330R
Method: as §1

[3] = target: T3, dCasMINI-V2-VPR (D143R/T147R) (UniProt A0A482D308 SEQ:1-529); assay: cell_activity; GFP activation; PAM TTTR; settings: chain copies: 2
T3 chain: T1 chain with D143R, T147R
Method: as §1

dCasMINI-V1-VPR (D143R) = target: T4, dCasMINI-V1-VPR (D143R) (UniProt A0A482D308 SEQ:1-529); assay: cell_activity; GFP activation; PAM TTTR; settings: chain copies: 2
T4 chain: T1 chain with D143R
Method: as §1

[4] = target: T5, dCasMINI-V4-VPR (D143R/T147R/K330R/E528R) (UniProt A0A482D308 SEQ:1-529, D326A,D510A); assay: cell_activity; GFP activation; 1.15-fold over V3 in screen; PAM TTTR; settings: tags: N-terminal SV40 NLS, C-terminal c-Myc NLS, mCherry
T5 sequence: T1 chain with D143R, T147R, K330R, E528R

B1: sgRNA Design 2 (stem-loop truncation) targeting TRE3G ; TRE3G promoter target (ssRNA ; dsDNA)
RNA: GGGCUUCACUGAUAAAGUGGAGAACCGCUUCACCAAAAGCUGUCCCUUAGGGGAUUAGAACUUGAGUGAAGGUGGGCUGCUUGCAUCAGCCUAAUGUCGAGAAGUGCUUUCUUCGGAAAGUAACCCUCGAAACAAAUUCAUUUGAAUGAAGGAAUGCAACCUCCCUAUCAGUGAUAGAGAACG
DNA 1: TTTACTCCCTATCAGTGATAGAGAACGTAT
DNA 2: ATACGTTCTCTATCACTGATAGGGAGTAAA
modifications: [-]
- activity [1]: 3.6 fold over non-targeting
- activity [2]: 1.26 fold over D143R/T147R
- activity [3]: 1.55 fold over best single variant
- activity (dCasMINI-V1-VPR (D143R)): > 24 fold over dCas14-VPR
- activity [4]: 244 fold activation
